Assay [1] addresses 0N4 R tau V300 mutated to alanine (human) (UniProt P10636). Briefly: flow cytometry on fixed, permeabilised Expi293 cells expressing the mutant, 10 µg/ml VR7082.
Assay [2] has as its target 0N4 R tau K298 mutated to alanine (human) (UniProt P10636). Described as above.

Chain of 0N4 R tau K298 mutated to alanine (human) (P10636 other isoform, or with tags, fused parts or gaps, change not shown): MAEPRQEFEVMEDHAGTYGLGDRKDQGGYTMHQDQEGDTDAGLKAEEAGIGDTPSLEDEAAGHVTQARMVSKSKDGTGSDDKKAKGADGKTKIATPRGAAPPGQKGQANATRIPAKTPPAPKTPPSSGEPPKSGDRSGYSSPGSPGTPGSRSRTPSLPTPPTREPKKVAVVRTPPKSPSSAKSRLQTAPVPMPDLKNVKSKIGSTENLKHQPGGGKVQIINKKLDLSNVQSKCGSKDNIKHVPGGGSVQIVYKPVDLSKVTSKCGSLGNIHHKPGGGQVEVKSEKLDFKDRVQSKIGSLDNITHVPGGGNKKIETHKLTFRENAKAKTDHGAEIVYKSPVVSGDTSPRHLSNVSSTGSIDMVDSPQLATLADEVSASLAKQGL
Chain of 0N4 R tau V300 mutated to alanine (human) (P10636 other isoform, or with tags, fused parts or gaps, change not shown): as above

B1: VR7082 rabbit IgG (antibody, V domains shown)
VH: QSVEESGGRLVTPGTPLTLTCTVSGIDLSNYAMIWVRQAPGEGLEYIGIISSTGNTFYATWAKGRFTISKTSTTVDLKITSPTAEDTATYFCARDTNSDSHYGWEAFNIWGPGTLVTVSS
VL: AVVLTQTPASVEAAVGGTVSINCQASEDIESYLAWYQQKPGQRPKLLIYRASTLASGVSSRFKGSGSGTEYTLTISGVECADAATYYCQEGYSIHVDNVFGGGTEVVVK
For the molecule B1, the decrease of binding relative to 0N4 R tau in assay [1] and in assay [2] was 50% each time.

The record behind these values is patent publication US20240409624A1.
